The record followed here is patent US20110177071A1 (PERSEID THERAPEUTICS, published 2011).

The term Kd denotes a measure of binding affinity in units of concentration.

Test [1] has as its target T1, full-length human CD86 on HEK293 cells (human, UniProt P42081 24-329).
T1 sequence: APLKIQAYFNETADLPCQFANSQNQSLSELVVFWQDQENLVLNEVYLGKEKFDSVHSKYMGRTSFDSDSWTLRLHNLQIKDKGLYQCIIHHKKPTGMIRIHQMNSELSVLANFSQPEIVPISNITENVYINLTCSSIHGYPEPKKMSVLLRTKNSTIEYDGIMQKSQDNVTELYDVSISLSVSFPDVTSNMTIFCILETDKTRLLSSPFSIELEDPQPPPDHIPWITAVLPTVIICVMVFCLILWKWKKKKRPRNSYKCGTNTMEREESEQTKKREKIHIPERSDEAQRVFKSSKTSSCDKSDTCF
As to the kind of experiment: cell-based or functional assay.

For test [2], the target named is T2, human CD86-murine Ig fusion protein (human).
T2 construct: Bought (Ancell #509-820); also called hCD86-mIg
T2 chain: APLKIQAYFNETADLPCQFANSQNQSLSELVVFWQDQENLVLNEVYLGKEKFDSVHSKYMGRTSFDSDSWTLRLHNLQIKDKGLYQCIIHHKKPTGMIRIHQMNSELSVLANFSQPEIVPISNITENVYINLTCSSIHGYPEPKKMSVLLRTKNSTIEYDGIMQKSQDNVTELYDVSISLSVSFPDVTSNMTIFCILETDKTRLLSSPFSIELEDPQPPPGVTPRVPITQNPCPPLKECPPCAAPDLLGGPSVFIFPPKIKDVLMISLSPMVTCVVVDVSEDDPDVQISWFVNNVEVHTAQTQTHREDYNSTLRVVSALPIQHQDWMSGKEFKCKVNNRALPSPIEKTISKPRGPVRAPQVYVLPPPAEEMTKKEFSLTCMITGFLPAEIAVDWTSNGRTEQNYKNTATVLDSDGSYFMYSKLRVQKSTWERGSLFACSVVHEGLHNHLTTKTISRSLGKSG
Description: SPR Biacore, hCD86-mIg captured. How it is done: (§1) All Biacore™ analyses were performed on a Biacore™ 2000 system (GE Healthcare) at room temperature (RT, 25° C.). HBS-EP buffer (10 mM HEPES (pH 7.4), 150 mM NaCl, 3 mM EDTA, 0.005% surfactant P20) was used as the flow buffer for all experiments.
(§2) Rabbit anti-mouse IgG antibody (GE Healthcare, #BR-1005-14) was immobilized on CM5 sensor chips (GE Healthcare, #BR-1000-14) according to the manufacturer's protocol. Antibody was diluted to 30 μg/ml in immobilization buffer (10 mM sodium acetate, pH 5.0 (BR-1003-51)). At a flow rate of 5 μl/minute, sensor chip CM5 was activated with a 35 μl injection of a mixture of 1-Ethyl-3-[3-dimethylaminopropyl]carbodiimide hydrochloride (EDC) and N-hydroxysuccinimide (NHS) (made by mixing equal volumes of 11.5 mg/ml EDC and 75 mg/ml NHS) (GE Healthcare, #BR-1000-50), followed by a 35 μl injection of undiluted antibody. Un-reacted sites were quenched with 35 μl of 1M ethanolamine-HCL, pH 8.5 (GE Healthcare, #BR-1000-50). […] CTLA-4 ligands human CD80-murine Ig (hCD80-mIg) (Ancell, #510-820) or human CD86-murine Ig (hCD86-mIg) (Ancell, #509-820) were bound to antibody-coated sensor chips by injection of 10 μl or 16 μl, respectively, ligand solution (2 μg/ml protein in HBS-EP buffer [10 mM HEPES pH 7.4, 150 mM NaCl, 3 mM EDTA, 0.005% (v/v) surfactant P-20, GE Healthcare, #BR-1001-88]) at a flow rate of 10 μl/min.

Test [3] deals with T3, human CD80-murine Ig fusion protein (human).
T3 construct: Bought (Ancell #510-820); also called hCD80-mIg; human CD80-murine IgG
T3 chain: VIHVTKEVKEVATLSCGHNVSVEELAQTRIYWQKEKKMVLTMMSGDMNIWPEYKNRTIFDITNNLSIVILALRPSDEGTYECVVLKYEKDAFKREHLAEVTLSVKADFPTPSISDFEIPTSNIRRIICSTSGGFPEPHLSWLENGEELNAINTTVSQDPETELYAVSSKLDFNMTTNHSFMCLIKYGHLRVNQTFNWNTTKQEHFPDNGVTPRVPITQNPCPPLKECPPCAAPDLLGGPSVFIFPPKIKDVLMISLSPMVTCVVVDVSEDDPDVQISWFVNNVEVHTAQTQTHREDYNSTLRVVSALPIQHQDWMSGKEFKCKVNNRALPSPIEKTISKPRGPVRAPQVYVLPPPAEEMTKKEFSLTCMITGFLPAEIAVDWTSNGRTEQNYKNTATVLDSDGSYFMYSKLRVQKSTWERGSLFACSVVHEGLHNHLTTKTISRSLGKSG
As to the kind of experiment: SPR Biacore, hCD80-mIg captured. How it is done:
as §1, §2

Substitutions are numbered along the chain they refer to.

B1: D2-IgG2 (Fc fusion)
chain: MHVAQPAVVLASSRGIASFVCEYESPHKANEIRVTVLRQANSQVTEVCAMTYMKGDELTFLDDPFCTGTFSGNQVNLTIQGLRAADTGLYICKVELMYPPPYYLGMGNGTQIYVIDPEPCPDSDERKCCVECPPCPAPPVAGPSVFLFPPKPKDTLMISRTPEVTCVVVDVSHEDPEVQFNWYVDGVEVHNAKTKPREEQFNSTFRVVSVLTVVHQDWLNGKEYKCKVSNKGLPAPIEKTISKTKGQPREPQVYTLPPSREEMTKNQVSLTCLVKGFYPSDIAVEWESNGQPENNYKTTPPMLDSDGSFFLYSKLTVDKSRWQQGNVFSCSVMHEALHNHYTQKSLSLSPG
Regarding B1, the “Mean IC50 (nM), CD4+ T cell proliferation” value (“Mean IC50 (nM)” for short) in test [1] worked out at 0.03 nM. The same molecule showed a Kd in test [2] of 0.131 to 0.262 nM. For the same molecule, in test [3], the “Binding Avidity (Relative to Orencia)” value is > 2 fold and the equilibrium dissociation constant (Kd) was < 0.439 nM.

B2: D29-IgG2 (Fc fusion)
chain: B1 chain with S25A, N30D, Q39K, N41D, K54M, G55E, F65S, A85M, M106L
For the molecule B2, in test [2], the “Binding Avidity (Relative to Orencia)” value is > 40 fold and the dissociation constant Kd is < 0.131 nM. This molecule also gave a Kd in test [3] of 0.439 to 1.75 nM.

B3: D3-15-IgG2 (Fc fusion)
chain: B1 chain with H27G, N41D, F65S, A85M, M106F
On to B3, for which the “Mean IC50 (nM)” value in test [1] stood at 0.02 nM. In addition, in test [2], the “Binding Avidity (Relative to Orencia)” value was > 40 fold and the dissociation constant (Kd) is < 0.131 nM. In test [3], this molecule gave a Kd of 0.439 to 1.75 nM.

B4: D28-IgG2 (Fc fusion)
chain: B1 chain with S25A, I32V, N41G, K54M, G55E, F65S, M106L
As for B4, in test [2], the “Binding Avidity (Relative to Orencia)” value is > 40 fold and the dissociation constant Kd was < 0.131 nM. In addition, the Kd in test [3] is 0.439 to 1.75 nM.

B5: D3-34-IgG2 (Fc fusion)
chain: B1 chain with E24A, H27G, I32V, N41D, D56N, F65S, A85M, M106I
Turning to B5, the “Mean IC50 (nM)” value in test [1] came to 0.05 nM. Moreover, the results for the dissociation constant Kd in test [2] and in test [3] were 0.131 to 0.262 nM and 0.439 to 1.75 nM, respectively.

B6: D3-3-IgG2 (Fc fusion)
chain: B1 chain with H27G, I32V, N41G, F65S, M106F
notes: also called D3-03-IgG2
Take B6: the “Mean IC50 (nM)” value in test [1] is 0.04 nM. Also, the Kd in test [2] lay within 0.131 to 0.262 nM; in test [3], 0.439 to 1.75 nM.

B7: D27-IgG2 (Fc fusion)
chain: B1 chain with H27G, I32V, Q39E, N41G, K54V, G55E, F65S, M106L
For the molecule B7, the “Binding Avidity (Relative to Orencia)” value in test [2] is > 40 fold. In addition, the Kd in test [2] is < 0.131 nM; in test [3], 0.439 to 1.75 nM.

B8: D3-39-IgG2 (Fc fusion)
chain: B1 chain with H27G, I32V, N41D, D56N, F65I, A85M, M106I
Take B8: in test [1], the “Mean IC50 (nM)” value came to 0.05 nM. The Kd in test [2] fell in the range of 0.262 to 0.523 nM; in test [3], 0.439 to 1.75 nM.

B9: D31-IgG2 (Fc fusion)
chain: MHVAQPAVVLASSRGIASFVCEYEAPHNADEIRVTVLRQAGSQVTEVCAMTYMVEDELTFLDKSICTGTFSGNQVNLTIQGLRAMDTGLYICKVELMYPPPYYLGIGNGTQIYVIDPEPCPDSDERKCCVECPPCPAPPVAGPSVFLFPPKPKDTLMISRTPEVTCVVVDVSHEDPEVQFNWYVDGVEVHNAKTKPREEQFNSTFRVVSVLTVVHQDWLNGKEYKCKVSNKGLPAPIEKTISKTKGQPREPQVYTLPPSREEMTKNQVSLTCLVKGFYPSDIAVEWESNGQPENNYKTTPPMLDSDGSFFLYSKLTVDKSRWQQGNVFSCSVMHEALHNHYTQKSLSLSPG
With B9, the figures for the dissociation constant (Kd) in test [2] and in test [3] were 0.131 to 0.262 nM and 0.439 to 1.75 nM, respectively.

B10: D3-6-IgG2 (Fc fusion)
chain: B1 chain with H27G, N41G, K54M, F65S, M106F
notes: also called D3-06-IgG2
Turning to B10, the “Mean IC50 (nM)” value in test [1] was determined as 0.05 nM. Besides, the dissociation constant Kd fell in the range of 0.131 to 0.262 nM in test [2] and 0.439 to 1.75 nM in test [3].

B11: D3-2-IgG2 (Fc fusion)
chain: B1 chain with H27G, N30T, N41G, F65S, M106F
notes: also called D3-02-IgG2; D3-02
As for B11, in test [1], the “Mean IC50 (nM)” value was 0.03 nM. The Kd fell in the range of 0.131 to 0.262 nM in test [2] and 0.439 to 1.75 nM in test [3].
